Test results: patent US20260102475A1

Columns and labels:
[1] = target: IgG in human serum (serum pool n=100; pre-dose patient serum)
[2] = target: polyclonal IgG (substrate spiked into post-dose sera)

B1: imlifidase (IdeS, Immunoglobulin G-degrading enzyme of S. pyogenes) (protein)
chain: DSFSANQEIRYSEVTPYHVTSVWTKGVTPPANFTQGEDVFHAPYVANQGWYDITKTFNGKDDLLCGAATAGNMLHWWFDQNKDQIKRYLEEHPEKQKINFNGEQMFDVKEAIDTKNHQLDSKLFEYFKEKAFPYLSTKHLGVFPDHVIDMFINGYRLSLTNHGPTPVKEGSKDPRGGIFDAVFTRGDQSKLLTSRHDFKEKNLKEISDLIKKELTEGKALGLSHTYANVRINHVINLWGADFDSNGNLKAIYVTDSDSNASIGMKKYFVGVNSAGKVAISAKEIKEDNIGAQVLGLFTLSTGQDSWNQTN
[1]
  cleavage of IgG in serum, SDS-PAGE: a concentration of around 2 µg/mL imlifidase was needed to start the cleavage in serum and concentrations below this did not result in any cleavage despite prolonged incubation
[2]
  degradation of substrate spiked into sera collected after imlifidase dosing: When polyclonal IgG was used as substrate, no degradation was seen in samples collected from 48 hours after dosing and forward

B2: N240 (IdeS/IdeZ hybrid IgG cysteine protease) (protein)
chain: DDYQRNATEAYAKEVPHQITSVWTKGVTPPEQFTQGEDVIHAPYLAHQGWYDITKAFNGKDDLLCGAATAGNMLHWWFDQNKTEIEAYLSKHPEKQKIIFRNQELFDLKAAIDTKDSQTNSQLFNYFRDKAFPNLSARQLGVMPDLVLDMFINGYYLNVFKTQSTDVNRPYQDKDKRGGIFDAVFTRGNQTTLLTARHDLKNKGLNDISTIIKQELTEGRALALSHTYANVSISHVINLWGADFNAEGNLEAIYVTDSDANASIGMKKYFVGINAHGHVAISAKKIEGENIGAQVLGLFTLSSGKDIWQKLS
[1]
  cleavage of IgG in pre-dose patient serum, SDS-PAGE and SAB-HLA: N240 showed similar cleavage properties to imlifidase
